The results in this text go back to patent US20220127328A1 (FATE THERAPEUTICS, published 2022).

The assay has as its target T1, NKG2C (transgenic, expressed on the surface of iPSC-derived NK cells) (Homo sapiens (Human), UniProt P26717 1-231).
T1 construct: After 2A cleavage a C-terminal 2A remnant may stay on the chain; also called transgenic NKG2C
The assay is described as follows: FACS of surface NKG2C on iNK cells from the NKG2C only iPSC line; pairing inferred from surface expression. From the text: After the engineering step, iPSCs were sorted for the desired phenotype. […] Engineered iPSCs were differentiated into CD34+ hematopoietic progenitor cells and subsequently differentiated into CD56+ NK cells (iNK cells) using a stepwise differentiation and expansion strategy. Surface NKG2C expression was low on unmodified iNK cells (about 5-10%) as determined by FACS.

T1 sequence (P26717 whole entry): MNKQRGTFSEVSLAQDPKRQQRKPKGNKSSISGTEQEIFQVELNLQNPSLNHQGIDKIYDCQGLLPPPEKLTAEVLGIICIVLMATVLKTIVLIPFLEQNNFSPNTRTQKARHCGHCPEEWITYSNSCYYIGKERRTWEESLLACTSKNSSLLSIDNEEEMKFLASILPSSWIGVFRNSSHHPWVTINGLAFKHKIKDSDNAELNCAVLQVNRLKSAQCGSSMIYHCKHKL

B1: endogenous CD94 (receptor, human, UniProt Q13241 1-179, looked up)
chain: MAVFKTTLWRLISGTLGIICLSLMSTLGILLKNSFTKLSIEPAFTPGPNIELQKDSDCCSCQEKWVGYRCNCYFISSEQKTWNESRHLCASQKSSLLQLQNTDELDFMSSSQQFYWIGLSYSEEHTAWLWENGSALSQYLFPSFETFNTKNCIAYNPNGNALDESCEDKNRYICKQQLI
notes: whole, on cells
For B1, the binding result is on record as “binds”.

B2: endogenous DAP12 (other, human, UniProt O43914 22-113, looked up)
chain: LRPVQAQAQSDCSCSTVSPGVLAGIVMGDLVLTVLIALAVYFLGRLVPRGRGAAEAATRKQRITETESPYQELQGQRSDVYSDLNTQRPYYK
notes: whole, on cells
In the case of B2, the binding result is “binds”.
